According to patent publication US20060115839A1 (published 2006):

Target: endogenous histone H3 in U2OS cells (human, UniProt P68431 2-136)
Experiment: formaldehyde crosslinking in irradiated U2OS cells, nickel bead capture, H3 immunoblot (FIG. 3g)
Description: Non-transfected U2OS osteosarcoma cells and transfected U2OS cells expressing His-tagged GFP-53BP1 fusion proteins with wild-type or mutant (Asp1521Arg) 53BP1 sequences were pre-extracted with Triton-X100 in situ 15 min after irradiation and then treated with formaldehyde to crosslink interacting proteins. His-tagged GFP-53BP1 was then affinity-purified on nickel-coated beads and bound histone H3 was detected by immunoblotting after the crosslinks were reversed by boiling. Histone H3 was captured on beads incubated with extracts from His-tagged GFP-wild-type 53BP1 expressing cells treated with formaldehyde, but not on beads incubated with extracts from cells that were mock-crosslinked or that were expressing the Asp1521Arg mutant protein (FIG. 3g). Further, the crosslinking was specific for histone H3, because histone H2A, although present in the Triton-X100 insoluble material, was not captured by the beads (data not shown).
Proteins were crosslinked with formaldehyde³⁰. Parental U2OS cells and U2OS cells expressing N-terminally His-tagged GFP-53BP1 fusion proteins containing residues 1220-1711 of 53BP1 were exposed to 9 Gy IR. […] Histone H3 was detected by immunoblotting after the crosslinks were reversed by boiling.

- binding result: no binding
B1: N-terminally His-tagged GFP-53BP1 fusion protein containing residues 1220-1711 of 53BP1 with Asp1521Arg (other)
chain: QGEEEFDMPQPPHGHVLHRHMRTIREVRTLVTRVITDVYYVDGTEVERKVTEETEEPIVECQECETEVSPSQTGGSSGDLGDISSFSSKASSLHRTSSGTSLSAMHSSGSSGKGAGPLRGKTSGTEPADFALPSSRGGPGKLSPRKGVSQTGTPVCEEDGDAGLGIRQGGKAPVTPRGRGRRGRPPSRTTGTRETAVPGPLGIEDISPNLSPDDKSFSRVVPRVPDSTRRTDVGAGALRRSDSPEIPFQAAAGPSDGLDASSPGNSFVGLRVVAKWSSNGYFYSGKITRDVGAGKYKLLFDRGYECDVLGKDILLCDPIPLDTEVTALSEDEYFSAGVVKGHRKESGELYYSIEKEGQRKWYKRMAVILSLEQGNRLREQYGLGPYEAVTPLTKAADISLDNLVEGKRKRRSNVSSPATPTASSSSSTTPTRKITESPRASMGVLSGKRKLITSEEERSPAKRGRKSATVKPGAVGAGEFVSPCESGDNTGE
notes: Expressed in U2OS cells; crosslinked in situ with formaldehyde; also called His-tagged GFP-53BP1 D1521R; Asp1521Arg mutant protein; not shown: N-terminal His tag and GFP, with any linkers
